{"source": "paper PMC11053944", "origin": "cited, not measured here", "key": {"[1]": {"biological_target": "Sba1 (Saccharomyces cerevisiae) (UniProt P28707)", "sequence (P28707 2-216)": "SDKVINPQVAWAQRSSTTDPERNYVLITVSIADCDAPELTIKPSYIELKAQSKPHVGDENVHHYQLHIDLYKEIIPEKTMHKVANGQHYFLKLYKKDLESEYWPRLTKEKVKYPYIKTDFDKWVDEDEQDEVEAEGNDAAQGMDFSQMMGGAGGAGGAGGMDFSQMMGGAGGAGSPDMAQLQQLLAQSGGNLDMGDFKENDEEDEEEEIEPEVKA", "experiment": "SPR"}, "[2]": {"biological_target": "Sba1 (Saccharomyces cerevisiae) (UniProt P28707)", "experiment": "ITC"}}, "data": [{"substance": "HSP90 (from UniProt P02829)", "values": [{"measurement": "Kd", "setting": "[1]", "result": 540, "unit": "nM"}, {"measurement": "Kd", "setting": "[2]", "result": 1750, "unit": "nM"}]}]}
